From article PMC4868133

Target: MUC2 VWD3 domain alone, produced as a shorter recombinant protein without the VWD1D2 domains (human)

stoichiometry N: 3
Substance: MUC2 VWD3 domain alone, produced as a shorter recombinant protein without the VWD1D2 domains (domain or fragment)
